Values quoted from earlier work as cited in patent US6664231B1, “Anti-fungal peptides” (priority 1993, dated 2003).

Assays:
[1] = tested on: gram-negative bacteria; conditions: as low as; cited from earlier work
[2] = tested on: gram-positive organisms Staphylococcus aureus, Staphylococcus epidermidis, Streptococcus faecalis, Bacillus subtilis, Micrococcus lysodeikricus, Listeria …; conditions: 10^−6 M or 160 μg/ml, pH 7.0 or 5.5; cited from earlier work
[3] = tested on: Candida albicans and Candida parapsilosis; conditions: 10^−6 M, pH 7.0 or 5.5; cited from earlier work
[4] = tested on: human, rabbit and sheep red blood cells and several human tumor cell lines; conditions: cited from earlier work

B1: BPI: bactericidal/permeability-increasing protein isolated from the granules of mammalian polymorphonuclear leukocytes (protein, UniProt P17213 32-487, looked up)
Bactericidal …: VNPGVVVRISQKGLDYASQQGTAALQKELKRIKIPDYSDSFKIKHLGKGHYSFYSMDIREFQLPSSQISMVPNVGLKFSISNANIKISGKWKAQKRFLKMSGNFDLSIEGMSISADLKLGSNPTSGKPTITCSSCSSHINSVHVHISKSKVGWLIQLFHKKIESALRNKMNSQVCEKVTNSVSSELQPYFQTLPVMTKIDSVAGINYGLVAPPATTAETLDVQMKGEFYSENHHNPPPFAPPVMEFPAAHDRMVYLGLSDYFFNTAGLVYQEAGVLKMTLRDDMIPKESKFRLTTKFFGTFLPEVAKKFPNMKIQIHVSASTPPHLSVQPTGLTFYPAVDVQAFAVLPNSSLASLFLIGMHTTGSMEVSAESNRLVGELKLDRLLLELKHSNIGPFPVELLQDIMNYIVPILVLPRVNEKLQKGFPLPTPARVQLYNVVLQPHQNFLLFGADVVYK
[1]
  concentration exhibiting anti-bacterial activity towards gram-negative bacteria: 10^−8 to 10^−9 M
[2]
  toxic effect on gram-positive organisms: no toxic effect
[3]
  toxic effect on fungi: no toxic effect
[4]
  toxicity to higher eukaryotic cells: non-toxic
